Results as given in patent US20220259330A1 (SUNSHINE GUOJIAN PHARMACEUTICAL SHANGHAI, published 2022).
Substitutions are numbered along the chain they refer to. Names may count otherwise. “And” between values parts separate entries of the source, which are not always exact repeats. Equal values may be shown once. Blank lines part the entries; values can stand above or below the binder they belong to.

Experiments:
[1] = biological target: T1, CD47-ECD-His (human, UniProt Q08722 19-139); test: ELISA, plate coated with CD47-ECD-His
T1 construct: extracellular domain; Bought; also called recombinant protein of the extracellular segment of human CD47 with a polyhistidine tag (Sino Biological 12283-H08H); not shown: polyhistidine tag

[2] = biological target: T2, HER2-ECD-His (human, UniProt P04626 23-652); test: ELISA, plate coated with HER2-ECD-His
T2 construct: extracellular domain; Bought; also called recombinant protein of the extracellular segment of human Her-2 with a polyhistidine tag (ACROBiosystems HE2-H5225); not shown: polyhistidine tag

[3] = biological target: T3, PD1-ECD-His (human, UniProt Q15116 25-170); test: ELISA, plate coated with PD1-ECD-His
T3 construct: extracellular domain; Bought; also called recombinant protein of the extracellular segment of human PD-1 with a polyhistidine tag (Sino Biological 10377-H08H); not shown: polyhistidine tag

[4] = biological target: T4, CD40-ECD-His (human, UniProt P25942 21-193); test: ELISA, plate coated with CD40-ECD-His
T4 construct: extracellular domain; Bought; also called recombinant protein of the extracellular segment of human CD40 with a polyhistidine tag (Sino Biological 10774-H08H); not shown: polyhistidine tag

[5] = biological target: T5, CD137-ECD-Fc (human, UniProt Q07011 24-186); test: ELISA, plate coated with CD137-ECD-Fc
T5 construct: extracellular domain; Bought; also called recombinant protein of the extracellular segment of human CD137 with Fc tags (Sino Biological 10041-H02H); not shown: Fc tag

[6] = biological target: T6, PD1-His (human, UniProt Q15116 25-170); test: ELISA, plate coated with PD1-His
T6 construct: extracellular domain; In-house protein; also called extracellular domain protein of human PD-1 with a 6*His tag

[7] = biological target: T7, VEGF165-His (human, UniProt P15692-4 27-191); test: ELISA, VEGF165-His coated at 10 ng/well
T7 construct: also called Human VEGF165 with a 6*His tag
T7 sequence: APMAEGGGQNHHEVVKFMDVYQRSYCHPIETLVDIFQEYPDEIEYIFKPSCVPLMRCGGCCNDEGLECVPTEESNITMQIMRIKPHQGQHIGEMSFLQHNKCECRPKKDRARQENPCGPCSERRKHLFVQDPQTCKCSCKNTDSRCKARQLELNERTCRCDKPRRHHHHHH

[8] = biological target: T8, biotinylated human PD-1 extracellular recombinant protein (Sino Biological, Cat. No. 10377-H08H-B) (human, UniProt Q15116 25-170, biotinylated); test: bridging ELISA: VEGF165 coated, antibody titrated, biotinylated human PD-1 at 200 ng/ml and streptavidin-HRP for detection
T8 construct: extracellular domain; Bought; detection reagent in the bridging ELISAs

[9] = biological target: T7, VEGF165-His; test: ELISA, plate coated with VEGF165-His
[10] = biological target: T7, VEGF165-His; test: SPR, Biacore 8K, antibody captured on Protein A/G chip, VEGF165-His injected
[11] = biological target: T6, PD1-His; test: SPR, Biacore 8K, antibody captured on Protein A/G chip, PD1-His injected
[12] = biological target: T9, recombinant VEGF165 (Acrobiosystems, Cat. No. VE5-H4210) (UniProt P15692-4 27-191); test: bridging ELISA: VEGF165 coated, antibody titrated, biotinylated human PD-1 at 200 ng/ml and streptavidin-HRP for detection
T9 construct: Bought; construct not described

T6 sequence (Q15116 other isoform, or with tags, fused parts or gaps): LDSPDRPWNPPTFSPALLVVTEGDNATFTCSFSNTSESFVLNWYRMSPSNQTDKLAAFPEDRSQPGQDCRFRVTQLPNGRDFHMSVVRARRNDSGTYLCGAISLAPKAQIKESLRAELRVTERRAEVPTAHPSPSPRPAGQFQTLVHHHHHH
T1 sequence (Q08722 19-139 limits assumed): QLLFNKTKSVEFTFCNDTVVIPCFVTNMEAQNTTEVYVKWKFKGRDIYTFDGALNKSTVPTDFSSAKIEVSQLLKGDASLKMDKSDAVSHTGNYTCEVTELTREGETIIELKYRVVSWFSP
T3 sequence (Q15116 25-170): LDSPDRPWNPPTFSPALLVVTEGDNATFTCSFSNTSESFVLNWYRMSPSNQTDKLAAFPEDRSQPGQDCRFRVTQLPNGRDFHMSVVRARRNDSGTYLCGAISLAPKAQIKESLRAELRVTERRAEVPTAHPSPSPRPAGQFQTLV
T4 sequence (P25942 21-193): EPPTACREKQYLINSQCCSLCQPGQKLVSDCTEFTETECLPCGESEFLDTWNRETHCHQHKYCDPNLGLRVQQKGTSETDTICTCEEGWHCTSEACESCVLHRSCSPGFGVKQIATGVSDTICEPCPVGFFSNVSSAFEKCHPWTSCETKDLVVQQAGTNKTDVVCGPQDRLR
T8 sequence (Q15116 25-170): as the sequence (Q15116 25-170) above
T5 sequence (Q07011 24-186): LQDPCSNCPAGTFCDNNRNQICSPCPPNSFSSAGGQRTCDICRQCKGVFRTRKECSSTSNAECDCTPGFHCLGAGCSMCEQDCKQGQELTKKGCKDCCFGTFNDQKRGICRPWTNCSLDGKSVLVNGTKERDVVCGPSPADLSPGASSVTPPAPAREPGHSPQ

B3: Anti-CD40-Hu (antibody, human IgG4 S228P, kappa, V domains shown)
VH: QIQLVQSGSELKKPGASVKVSCKASGYAFTTTGMQWVREAPGQGLEWIGWINTHSGVPKYVEDFKGRFVFSLDTSVNTAYLQISSLKAEDTAVYYCVRSGNGNYDLAYFAYWGQGTLVTVSS
VL: EIVLTQSPATLSLSPGERATLSCRASQSISDYLHWYQQKPGQSPRLLIKYASHSISGIPARFSGSGSGSDFTLTISSLEPEDFAVYYCQHGHSFPWTFGQGTKVEIKR
notes: Humanized anti-human CD40, IgG4 (S228P), kappa; also called humanized MAb2.220
binding result [3]: no binding | EC50 [4]: 0.11 nM

B4: Anti-CD40-Hu-HC+609-LC (antibody, human IgG4 S228P, kappa, V domains shown)
VH: B3 VH
VL: EIVLTQSPATLSLSPGERATLSCRASQSISNFLHWYQQKPGQAPRLLIKYASQSISGIPARFSGSGSGTDFTLTISSLEPEDFAVYFCQQSNSWPHTFGQGTKVEIKR
notes: Hybrid antibody
binding result [3]: no binding | binding result [4]: no binding

B5: 19H6-Hu (antibody, human IgG1, kappa, V domains shown)
VH: QVQLVQSGAEVKKPGASVKVSCKGSGYTFTDYAIHWVRQAPGQSLEWIGVFSIYYENINYNQKFKGRATMTVDKSTSTAYMELRSLRSDDTAVYYCARRDGGTINYWGQGTLVTVSS
VL: DVVMTQSPLSLPVTLGQPASISCRSSQSLVHSNGNTYLHWYQQRPGQSPRLLIYKVSNRFSGVPDRFSGSGSGTDFTLKISRVEAEDVGVYFCSQSTHIPWTFGQGTKVEIKR
notes: Humanized anti-human HER2, IgG1, kappa; also called 19H6-Hu-HC+19H6-Hu-LC
binding result [5]: no binding | binding result [1]: no binding | EC50 [2]: 0.077 nM and 0.126 nM and 0.122 nM and 0.193 nM

B6: Anti-CD47B-Hu (antibody, human IgG1, kappa, V domains shown)
VH: QVQLVQSGAEVKKPGASVKVSCKASGYTFANHVIHWVRQAPGQGLEWMGYIYPYNDGTKYNEKFKDRVTLTSDKSTSTVYMELSSLRSEDTAVYYCARGGYYTYDDWGQGTLVTVSS
VL: B5 VL with N35K, F92Y, I99V, W101Y
notes: Humanized anti-human CD47, IgG1, kappa; also called humanized MABL-2
EC50 [1]: 0.0428 nM | binding result [2]: no binding

B7: 19H6-Hu-HC+Anti-CD47B-Hu-LC (antibody, human IgG1, kappa, V domains shown)
VH: B5 VH
VL: B5 VL with N35K, F92Y, I99V, W101Y
notes: Hybrid antibody
binding result [1]: no binding | EC50 [2]: 0.139 nM

B10: 609-Fab-40-IgG4 (bispecific antibody)
heavy: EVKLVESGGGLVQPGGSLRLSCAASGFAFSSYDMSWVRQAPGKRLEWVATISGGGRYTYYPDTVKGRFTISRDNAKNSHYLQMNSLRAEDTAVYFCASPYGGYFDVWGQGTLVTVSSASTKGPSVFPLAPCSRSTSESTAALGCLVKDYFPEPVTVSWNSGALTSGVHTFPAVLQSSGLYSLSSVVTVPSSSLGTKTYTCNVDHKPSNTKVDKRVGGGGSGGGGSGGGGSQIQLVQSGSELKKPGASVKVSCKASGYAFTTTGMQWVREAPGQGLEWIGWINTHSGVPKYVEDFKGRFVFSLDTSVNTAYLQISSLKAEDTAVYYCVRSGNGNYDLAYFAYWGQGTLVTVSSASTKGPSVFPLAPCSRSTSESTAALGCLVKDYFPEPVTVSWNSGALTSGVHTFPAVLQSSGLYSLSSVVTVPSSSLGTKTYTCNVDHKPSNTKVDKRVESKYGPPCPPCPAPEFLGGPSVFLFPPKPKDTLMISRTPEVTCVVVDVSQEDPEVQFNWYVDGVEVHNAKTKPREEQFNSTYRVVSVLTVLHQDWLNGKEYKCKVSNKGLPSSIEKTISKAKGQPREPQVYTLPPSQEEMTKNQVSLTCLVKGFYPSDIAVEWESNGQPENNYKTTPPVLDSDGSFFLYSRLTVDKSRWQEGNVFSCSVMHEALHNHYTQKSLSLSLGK
light: EIVLTQSPATLSLSPGERATLSCRASQSISDYLHWYQQKPGQSPRLLIKYASHSISGIPARFSGSGSGSDFTLTISSLEPEDFAVYYCQHGHSFPWTFGQGTKVEIKRTVAAPSVFIFPPSDEQLKSGTASVVCLLNNFYPREAKVQWKVDNALQSGNSQESVTEQDSKDSTYSLSSTLTLSKADYEKHKVYACEVTHQGLSSPVTKSFNRGEC
EC50 [3]: 0.172 nM | EC50 [4]: 0.105 nM

B11: 20-Hu-HC+601-LC (antibody, human IgG4 S228P, kappa, V domains shown)
VH: EVQLVESGGGLVQPGGSLRLSCAASGFVFSNYDMSWVRQAPGKRLEWVATISGGGGYTYYSDSVKGRFTISRDNAKNSLYLQMNSLRAEDTAVYYCASPYGHYGFEYWGQGTLVTVSS
VL: DIQMTQSPSSLSASVGDRVTITCSASQDISNYLNWYQQKPGKAPKVLIYFTSSLHSGVPSRFSGSGSGTDFTLTISSLQPEDFATYYCQQYSTVPWTFGQGTKVEIKR
notes: Hybrid antibody
EC50 [6]: 0.625 nM and 0.975 nM | binding result [7]: no binding

B12: 601 (antibody, human IgG1, kappa, V domains shown)
VH: EVQLVESGGGLVQPGGSLRLSCAASGYTFTNYGMNWVRQAPGKGLEWVGWINTYTGEPTYAADFKRRFTFSLDTSKSTAYLQMNSLRAEDTAVYYCAKYPHYYGSSHWYFDVWGQGTLVTVSS
VL: B11 VL
notes: Anti-VEGF, IgG1, kappa; also called Bevacizumab
binding result [8]: no binding

B15: 20-Hu (antibody, human IgG4 S228P, kappa, V domains shown)
VH: B11 VH
VL: DIQMTQSPSSLSASVGDRVTITCSASQGISNFLSWYQQKPGKTVKLLIYYTSSLHSGVPSRFSGSGSGTDYTFTISSLQPEDIATYYCQQYSNLPWTFGQGTKVEIKR
notes: Humanized anti-human PD-1, IgG4 (S228P), kappa; also called 20-Humanized; 20-Hu-HC+20-Hu-LC
EC50 [6]: 0.206 nM | binding result [7]: no binding

Continued, values first:

EC50 [1]: 0.0782 nM | EC50 [2]: 0.106 nM
B1: CD47B-Fab-19H6-IgG1 (bispecific antibody)
heavy: not shown
light: DVVMTQSPLSLPVTLGQPASISCRSSQSLVHSNGNTYLHWYQQRPGQSPRLLIYKVSNRFSGVPDRFSGSGSGTDFTLKISRVEAEDVGVYFCSQSTHIPWTFGQGTKVEIKRTVAAPSVFIFPPSDEQLKSGTASVVCLLNNFYPREAKVQWKVDNALQSGNSQESVTEQDSKDSTYSLSSTLTLSKADYEKHKVYACEVTHQGLSSPVTKSFNRGEC

EC50 [1]: 0.195 nM | EC50 [2]: 0.154 nM
B2: 19H6-Fab-CD47B-IgG1 (bispecific antibody)
heavy: not shown
light: B1 light

EC50 [1]: 0.0541 nM and 0.0617 nM | binding result [2]: no binding
B8: Anti-CD47B-Hu-HC+19H6-Hu-LC (antibody, human IgG1, kappa, V domains shown)
VH: B6 VH
VL: B5 VL
notes: Hybrid antibody

EC50 [3]: 1.02 nM | EC50 [4]: 0.0956 nM
B9: 40-Fab-609-IgG4 (bispecific antibody)
heavy: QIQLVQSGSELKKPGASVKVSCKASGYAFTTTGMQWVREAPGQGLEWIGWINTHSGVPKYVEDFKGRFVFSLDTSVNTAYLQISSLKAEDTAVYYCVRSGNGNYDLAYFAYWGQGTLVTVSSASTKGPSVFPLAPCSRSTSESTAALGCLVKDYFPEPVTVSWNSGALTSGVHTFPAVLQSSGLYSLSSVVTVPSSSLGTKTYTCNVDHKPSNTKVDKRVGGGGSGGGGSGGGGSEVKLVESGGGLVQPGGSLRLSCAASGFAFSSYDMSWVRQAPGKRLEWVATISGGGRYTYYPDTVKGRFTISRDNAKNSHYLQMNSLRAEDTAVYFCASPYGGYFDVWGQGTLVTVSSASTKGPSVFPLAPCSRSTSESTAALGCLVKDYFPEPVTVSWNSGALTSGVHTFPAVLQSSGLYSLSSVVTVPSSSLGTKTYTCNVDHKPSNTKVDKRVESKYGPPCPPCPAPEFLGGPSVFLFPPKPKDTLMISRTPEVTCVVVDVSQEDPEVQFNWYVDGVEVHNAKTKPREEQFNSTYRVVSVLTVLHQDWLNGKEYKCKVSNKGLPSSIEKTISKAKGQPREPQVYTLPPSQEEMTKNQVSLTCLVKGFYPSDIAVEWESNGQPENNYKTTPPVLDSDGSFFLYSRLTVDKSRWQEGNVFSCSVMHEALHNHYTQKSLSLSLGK
light: B10 light

EC50 [9]: 0.326 nM
B13: 601-HC+601-LC-V46L (antibody, human IgG1, kappa, V domains shown)
VH: B12 VH
VL: B11 VL with V46L

Kd [10]: 0.00746 nM | koff [10]: 2.91e-05 s⁻¹ | kon [10]: 3.9e+06 M⁻¹ s⁻¹
B14: 601-HC+601-LC-V94L (antibody, human IgG1, kappa, V domains shown)
VH: B12 VH
VL: B11 VL with V94L

EC50 [9]: 0.126 nM
B16: 601-HC+601-LC-T93N (antibody, human IgG1, kappa, V domains shown)
VH: B12 VH
VL: B11 VL with T93N

EC50 [6]: 0.308 nM and 0.331 nM | Kd [11]: 1.59 nM | koff [11]: 4.54e-05 s⁻¹ | kon [11]: 28600 M⁻¹ s⁻¹ | binding result [12]: no binding
B17: 20-Hu-HC+601-LC-V94L (antibody, human IgG4 S228P, kappa, V domains shown)
VH: B11 VH
VL: B11 VL with V94L

EC50 [9]: 0.125 nM
B18: 601-HC+601-LC-Y32F (antibody, human IgG1, kappa, V domains shown)
VH: B12 VH
VL: B11 VL with Y32F
